Measurements published in article PMC6073757.
Values joined by “and” are separate entries in the source; they are usually repeats but may differ in a detail not shown here. Equal values may be shown once.

Experiments:
[1] = target: LrtA protein of Synechocystis sp. PCC 6803 (Synechocystis sp. PCC 6803); assay: SEC; Superose 12 10/300 GL, 50 mM Tris pH 8.0, 0.7 M NaCl, 97 uM LrtA (protomer units) loaded in 100 uL, 25 °C; calibrated with blue dextran, albumin, RNase A
[2] = target: LrtA protein of Synechocystis sp. PCC 6803 (Synechocystis sp. PCC 6803); assay: cross-linking; glutaraldehyde 1% final, 97 uM LrtA (protomer units), 50 mM Tris pH 8.0, 0.5 M NaCl, room temperature; aliquots on 12% SDS-PAGE

For “LrtA protein of Synechocystis sp. PCC 6803 (natural protein)”, the stoichiometry N [1] was 6 and 12 and the stoichiometry N [2] was 2.
